Measurements published in publication PMC8605023.

Tests used:
[1] = biological target: G3BP1 NTF2 domain (human) (UniProt Q13283)
[2] = biological target: G3BP2 NTF2 domain (human) (UniProt Q9UN86)
USP7 (human) = USP7 (human) (UniProt Q93009)
[3] = biological target: MAP1LC3C ATG8 domain (human) (UniProt Q9BXW4)
Sequence of MAP1LC3C ATG8 domain (human) (Q9BXW4 1-126): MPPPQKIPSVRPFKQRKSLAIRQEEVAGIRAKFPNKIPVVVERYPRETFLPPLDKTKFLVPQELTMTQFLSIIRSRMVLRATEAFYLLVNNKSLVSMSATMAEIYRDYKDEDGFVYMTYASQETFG

Sequence of USP7 (human) (Q93009 whole entry, the tested form may be a part): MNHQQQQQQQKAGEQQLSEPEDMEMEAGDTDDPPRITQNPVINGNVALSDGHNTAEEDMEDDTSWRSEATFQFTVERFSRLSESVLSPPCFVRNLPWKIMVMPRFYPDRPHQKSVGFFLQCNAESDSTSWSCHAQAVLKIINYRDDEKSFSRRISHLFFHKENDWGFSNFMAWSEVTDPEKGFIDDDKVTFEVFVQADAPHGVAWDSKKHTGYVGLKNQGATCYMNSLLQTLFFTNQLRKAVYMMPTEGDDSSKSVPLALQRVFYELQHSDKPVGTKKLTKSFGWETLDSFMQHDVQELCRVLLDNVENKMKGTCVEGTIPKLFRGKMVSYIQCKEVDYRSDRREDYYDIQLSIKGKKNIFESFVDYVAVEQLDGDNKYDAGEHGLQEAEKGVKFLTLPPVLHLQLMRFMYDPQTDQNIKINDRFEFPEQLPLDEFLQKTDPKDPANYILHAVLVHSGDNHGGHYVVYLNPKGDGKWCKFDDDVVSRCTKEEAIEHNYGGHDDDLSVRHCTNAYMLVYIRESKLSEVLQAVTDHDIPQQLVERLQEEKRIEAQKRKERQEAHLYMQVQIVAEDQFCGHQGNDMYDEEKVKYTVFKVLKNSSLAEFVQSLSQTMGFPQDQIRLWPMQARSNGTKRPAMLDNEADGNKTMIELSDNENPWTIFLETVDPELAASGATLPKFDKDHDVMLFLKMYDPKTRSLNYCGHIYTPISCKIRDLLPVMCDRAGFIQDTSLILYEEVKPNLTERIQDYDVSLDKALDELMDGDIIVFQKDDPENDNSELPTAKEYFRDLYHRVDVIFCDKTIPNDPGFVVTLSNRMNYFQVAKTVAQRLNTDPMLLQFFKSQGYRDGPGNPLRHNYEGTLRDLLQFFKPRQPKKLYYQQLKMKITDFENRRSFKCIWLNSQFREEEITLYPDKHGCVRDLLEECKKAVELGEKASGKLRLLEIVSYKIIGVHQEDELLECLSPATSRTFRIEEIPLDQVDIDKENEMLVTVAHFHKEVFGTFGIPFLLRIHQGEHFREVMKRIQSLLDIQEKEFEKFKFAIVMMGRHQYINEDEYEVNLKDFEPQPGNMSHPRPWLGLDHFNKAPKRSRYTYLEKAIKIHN
Sequence of G3BP2 NTF2 domain (human) (Q9UN86 11-133): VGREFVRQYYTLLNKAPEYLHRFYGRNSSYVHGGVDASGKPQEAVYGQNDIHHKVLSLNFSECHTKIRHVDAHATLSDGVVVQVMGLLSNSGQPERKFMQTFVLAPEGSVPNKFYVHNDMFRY
Sequence of G3BP1 NTF2 domain (human) (Q13283 11-133): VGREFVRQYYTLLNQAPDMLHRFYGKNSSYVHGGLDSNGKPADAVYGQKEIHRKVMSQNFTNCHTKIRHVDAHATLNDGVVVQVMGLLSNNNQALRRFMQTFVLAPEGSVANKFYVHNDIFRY

Row | Substance | IC50 [1] | IC50 [2] | IC50 (USP7 (human)) | Ki (USP7 (human)) | IC50 [3] | Ki [3]
1 | N peptide 12-26 (Sars-CoV2) | 17 µM | 10 µM | – | – | – | –
2 | N peptide 405-419 (Sars-CoV2) | – | – | 1050 µM | 150 µM | – | –
3 | NSP3 peptide 2019-2034 (Sars-CoV2) | – | – | 270 µM | 37 µM | 1530 µM | 210 µM
